Data published in patent US20120004133A1.

Biological target: Ang II type 1 receptor on rat vascular smooth muscle cells (rat) (UniProt P25095)
Test: cell-based or functional assay

Chain of UniProt P25095 (P25095 whole entry): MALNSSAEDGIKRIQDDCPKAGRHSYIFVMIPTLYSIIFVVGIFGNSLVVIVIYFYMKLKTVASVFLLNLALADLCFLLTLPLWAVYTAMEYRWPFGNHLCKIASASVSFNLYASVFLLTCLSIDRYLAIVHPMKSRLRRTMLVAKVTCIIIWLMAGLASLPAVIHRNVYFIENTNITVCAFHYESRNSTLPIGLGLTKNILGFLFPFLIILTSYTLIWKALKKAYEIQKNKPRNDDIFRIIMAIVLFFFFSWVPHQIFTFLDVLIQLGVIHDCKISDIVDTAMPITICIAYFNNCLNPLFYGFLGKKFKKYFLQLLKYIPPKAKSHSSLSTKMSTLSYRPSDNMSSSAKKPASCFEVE

MFG-E8 protein level in old VSMC (Western blot): 40%
Substance: [Sar1, Gly8]-Ang II acetate hydrate (peptide)
